± gives the standard deviation.
Assay: protein stability index of a GFP-peptide fusion (GPS, HEK-293T) (PSI 1-6); higher = more stable
Details: c terminus: a fixed tail appended
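Further: 24-mer peptide tiles fused after GFP, lentivirally expressed, FACS-sorted into six equal bins by GFP/DsRed ratio, decoded by Illumina sequencing, PSI is the read-weighted mean bin number.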

| Sequence | protein stability index (treatment: DMSO) | protein stability index (treatment: MLN4924 1 uM, 8 h) |
| --- | --- | --- |
| PELTITSLFSPVTEDSPLGTVVAL [PCDHGA10] | 2.56 ± 0.26 | 2.72 ± 0.33 |
| PESAIKFMAYEQIKRLVGSDQETL [SLC25A25] | 3.31 ± 0.15 | 3.4 ± 0.25 |
| PFTKKRVGVDRAFPLKPMVHRKSC [ZC2HC1C] | 3.4 ± 0.13 | 3.65 ± 0.1 |
| PFYPEVELNFISVFWPQLPNGLEA [MMP1] | 2.61 ± 0.28 | 2.62 ± 0.52 |
| PGACPALGTKSCSSSCAVHDLIFW [RTN3] | 2.35 ± 0.33 | 2.29 ± 0.39 |
| PGMASHPPIPILELADHIERLKAN [PTPRD] | 3.6 ± 0.18 | 3.81 ± 0.19 |
| PGPPSAPPPPPKEGHQEGLVELPA [SCNN1D] | 5.46 ± 0.23 | 5.47 ± 0.17 |
| PKDENERSTCNVVQDEFLDTPCTN [DLC1] | 5.45 ± 0.15 | 5.41 ± 0.13 |
| PKKGPAPSLSPGSSCVKYLIFLSN [TSPAN10] | 2.59 ± 0.64 | 2.43 ± 0.21 |
| PLESAFDHEDFTGSSSLGFTSSPS [FCHO1] | 4.81 ± 0.35 | 5.07 ± 0.15 |
| PLHVAQTRLYLRSHRPNMELCRDA [TEKT4] | 2.9 ± 0.17 | 3 ± 0.18 |
| PNGKHSTNFVSRYDPRFNSWIQLP [KLHL14] | 2.32 ± 0.097 | 2.58 ± 0.24 |
| PNSTFPIDKSMTVVLTFITPMLNP [OR4A15] | 2.95 ± 0.38 | 2.97 ± 0.38 |
| PPFWDEDQHRLYKQIKAGAYDFPS [CAMK2A] | 3.4 ± 0.28 | 3.54 ± 0.29 |
| PPHKHVARPTEVLAGTQLLYAFFT [TRIB3] | 2.46 ± 0.21 | 2.43 ± 0.15 |
| PPKWQIGEQEFEALMRMLDNLGYR [ADD1] | 2.35 ± 0.26 | 2.58 ± 0.22 |
| PPPPHPYNPHPGFPELGYSYGGGS [DVL3] | 3.4 ± 0.32 | 3.6 ± 0.32 |
| PPWFEGLESRFQSKSGYLRYSCES [DFFB] | 2.51 ± 0.19 | 2.54 ± 0.2 |
| PQGAVLVQREKDLPNYNWNSFGLR [KISS1] | 3.04 ± 0.17 | 3.13 ± 0.32 |
| PRLHGAKAILDAEPGPRPALQPSP [TBC1D10A] | 4.81 ± 0.19 | 4.94 ± 0.17 |
| PSAAQTLRSFCAWQRGLNTPEDSD [ADAMTS4] | 4.29 ± 0.25 | 4.53 ± 0.17 |
| PSDFCGLTHLVKLDLSKNKLQQLP [LRRC59] | 2.17 ± 0.31 | 2.16 ± 0.17 |
| PSLHVVKVLLDCGADPDSRDFDNN [FEM1A] | 3.46 ± 0.14 | 3.82 ± 0.21 |

| Sequence | protein stability index (treatment: DMSO) | protein stability index (treatment: MLN4924 1 uM, 8 h) |
| --- | --- | --- |
| PSPAAVPRPPSNPPARGTLKTSNL [TRAF3IP2] | 5.12 ± 0.1 | 4.94 ± 0.21 |
| PSSLMETLEQHLNTLEGKKPGNNE [SNAP91] | 5.17 ± 0.09 | 5.05 ± 0.17 |
| PTLGGGFHVNLGKESRAQTLQNGR [BRF1] | 4.04 ± 0.47 | 4.14 ± 0.33 |
| PTQLRALNLTEGFAVLHWKPPQNP [TNXB] | 2.8 ± 0.66 | 3.04 ± 0.63 |
| PTRCTLEAGAMTFHYIIEQGVCYL [SEC22B] | 2.93 ± 0.96 | 3.14 ± 0.46 |
| PTSGIVGALMEVMQKRSKAIHSSD [WASL] | 3.14 ± 0.14 | 3.39 ± 0.19 |
| PTVDLNQVLNETRSQYEALVETNR [KRT34] | 3.37 ± 0.55 | 3.79 ± 0.48 |
| PTWWPLPTQVPAAEDYLTWKEWGF [SPAG8] | 2.58 ± 0.18 | 2.35 ± 0.35 |
| PVKASRSHQELHRELLMNHRRGLG [FAM107A] | 3.73 ± 0.27 | 3.95 ± 0.42 |
| PVPATPILQLEECCTHNNSATLSW [TRIM9] | 3.27 ± 0.16 | 3.38 ± 0.18 |
| PWDKNPEALAKWAEGRTGFPWIDA [CRY1] | 3.08 ± 0.17 | 3.04 ± 0.2 |
| QAASRIIRNEQFAIRRFQSMPVRL [CDC25B] | 2.75 ± 0.31 | 2.74 ± 0.49 |
| QALRGLEGYTWRVAQLEDRRSTTD [ZSWIM9] | 3.91 ± 0.23 | 3.75 ± 0.52 |
| QAQPLRTTSTLASSLPGHAAKTLP [EHMT1] | 4.33 ± 0.16 | 4.4 ± 0.29 |
| QDMSQVSGKESPPVSDTPDEGDEP [IKZF1] | 5.38 ± 0.41 | 5.62 ± 0.32 |
| QDSPGPREAVSQLRELCRLWLRPE [ZNF24] | 3.11 ± 0.32 | 2.9 ± 0.24 |
| QEARERWNFDFVTETPLEGDFAWE [CDKN1A] | 4.39 ± 0.29 | 4.29 ± 0.24 |
| QEEMAEDPLTYKSRLMVVVKMDSS [RHOBTB2] | 3.45 ± 0.27 | 3.49 ± 0.24 |
| QEHPRQQLATSSFLLFLLTGIVSV [MOSPD3] | 3.32 ± 0.49 | 2.83 ± 0.096 |
| QELVLKVRIQNPSLRENDFIEIEL [ANKRD40] | 2.68 ± 1.1 | 2.38 ± 1 |
| QEYEALLNIKVKLEAEIATYRRLL [KRT18] | 2.89 ± 0.28 | 2.82 ± 0.42 |
| QFLNDQISVQNYKQVCKIAALHGL [KLHL14] | 2.14 ± 0.28 | 2.17 ± 0.16 |
| QGLEQFINKIAGHPLAQNERCLHM [SNX12] | 2.27 ± 0.13 | 2.41 ± 0.21 |

| Sequence | protein stability index (treatment: DMSO) | protein stability index (treatment: MLN4924 1 uM, 8 h) |
| --- | --- | --- |
| QGQPDPAPRPGPPAGTPPPTARHF [MOSPD3] | 3.77 ± 0.21 | 3.65 ± 1.1 |
| QINRLQKLIDRLEKKDLKLEPPEE [NECAB1] | 3.22 ± 0.1 | 3.7 ± 0.56 |
| QKKIGAYDQQIWEKSIEQTQIKGL [PHTF1] | 3.76 ± 0.12 | 3.73 ± 0.22 |
| QKNKKILKSAKDLPPDALIIEYRG [KMT2E] | 2.82 ± 0.43 | 3.07 ± 0.37 |
| QLKKCETRKLSPGKKRCKDIKRLL [SMG5] | 3.32 ± 0.51 | 3.22 ± 0.18 |
| QLNGTANDTAGPELPDPLGGLLDE [NFE2L1] | 5.11 ± 0.32 | 5.37 ± 0.32 |
| QLQALNRRFQQTQYLALPERAELA [DLX1] | 3.05 ± 0.28 | 3.23 ± 0.085 |
| QLWGQKKKNSNMTYEKLSRAMRYY [ELF3] | 2.29 ± 0.042 | 2.32 ± 0.25 |
| QMLRKTVKDEAHQAQKDPKKDRPL [PPP2R5C] | 4.89 ± 0.1 | 4.97 ± 0.24 |
| QQACTHTKETEQLRSQLQTLKQQH [CCDC89] | 4.71 ± 0.17 | 4.65 ± 0.17 |
| QRFEVIEFDDGSGSVLRIQPLRTP [PTPRD] | 2.68 ± 0.28 | 2.99 ± 0.21 |
| QRSTVFKTTIPEEEEEEEEAAGVV [LMNB1] | 5.6 ± 0.11 | 5.56 ± 0.22 |
| QRTHTGEKPYKCPECGEIFAHSSN [ZNF263] | 3.6 ± 0.37 | 4.07 ± 0.47 |
| QSFTLRGDHRSPASAQKFSSRSTV [NET1] | 3.92 ± 0.097 | 3.9 ± 0.3 |
| QTEETQETALTLACCGGFLEVADF [ANKRD17] | 3.79 ± 0.28 | 3.96 ± 0.28 |
| QTNSTKNSAAATSPKGTLPPAALE [CAMK2B] | 5.32 ± 0.16 | 5.22 ± 0.24 |
| QTVFQKKNLQQTTNTTSTQMTNIG [IQUB] | 4.08 ± 0.2 | 4.28 ± 0.27 |
| QVFRLAFRSGALDLDSCSRDGALL [MYORG] | 2.33 ± 0.29 | 2.14 ± 0.091 |
| QYYDDEKKTWKILTIMPYNSAHHC [KLHL14] | 2.56 ± 0.43 | 2.59 ± 0.42 |
| QYYEACRKAAKSLIKLGLERFHGV [ACSBG2] | 3.51 ± 1.3 | 3.45 ± 0.44 |
| RAASAMQFFTKGYQETISDVLNDA [GCH1] | 3.38 ± 0.12 | 3.53 ± 0.072 |
| RCVRVFLEHGADPTVKDLIGGFTA [ASB7] | 2.4 ± 0.78 | 2.04 ± 0.41 |
| RDCGEEMQNGAGASRTSTIFLNGN [TNXB] | 3.99 ± 0.56 | 4.34 ± 0.23 |

| Sequence | protein stability index (treatment: DMSO) | protein stability index (treatment: MLN4924 1 uM, 8 h) |
| --- | --- | --- |
| RDGEPEPMQKLQDLVNRTPWKKCC [RBBP5] | 4 ± 0.21 | 4.04 ± 0.21 |
| RDLASVPPELTASRQSFRMAMGNP [DVL3] | 3.75 ± 0.32 | 3.81 ± 0.13 |
| RDSSFLISGGFDRTVAIWDVAEGY [WDR88] | 2.71 ± 0.16 | 2.86 ± 0.23 |
| REDKATIKCETSPPSSPRTLRLEK [PPFIA4] | 5.51 ± 0.18 | 5.45 ± 0.15 |
| REEDFPSLREYNDFLEEVEEIVFN [MNAT1] | 3.82 ± 0.16 | 3.73 ± 0.28 |
| REEEEKTPPETKPDPPVNFLRQKV [PCMTD2] | 5.34 ± 0.26 | 5.29 ± 0.087 |
| REKGGKVLVHCEAGISRSPTICMA [DUSP5] | 2.93 ± 0.27 | 3.03 ± 0.38 |
| RELAERGVRIVSRGRTQLFSLNPR [PCDHGA10] | 3.2 ± 0.35 | 3.33 ± 0.12 |
| RENGNNSSDKVRGIETLESVPIIG [PHTF1] | 4.8 ± 0.33 | 4.53 ± 0.36 |
| RESCPPLGLETLKITDFQLHASTV [CPXM2] | 3.29 ± 0.15 | 3.32 ± 0.14 |
| REVRRAQARLLNPSATRAKPGPQD [NOP53] | 4.75 ± 0.28 | 4.66 ± 0.14 |
| RGIFVVRGENVVLLGEIDLEKESD [LSM1] | 2.37 ± 0.23 | 2.31 ± 0.52 |
| RGKKLMVLTEPILIETYTGLMSFI [TPRG1] | 2.95 ± 0.34 | 2.6 ± 0.48 |
| RGPPRGLRGGRGGSGGTRGPPSRG [RBMX] | 5.18 ± 0.2 | 4.92 ± 0.33 |
| RHDVIVSIVTAAKKDILLVNDHLL [PDS5B] | 2.51 ± 0.31 | 2.29 ± 0.5 |
| RHSISMPAMRNSPTFKSFEERVET [TPD52L1] | 4.66 ± 0.18 | 4.75 ± 0.42 |
| RIHTEEKPYKCQQCDKRFRWSSDL [ZNF75A] | 3 ± 0.2 | 2.94 ± 0.091 |
| RISNPSDDNSCEDLEEERREEEEK [PCMTD2] | 5.59 ± 0.099 | 5.704 ± 0.05 |
| RKLLEGEESRISVPVHSFASLNIK [PRPH] | 2.96 ± 0.23 | 3.31 ± 0.41 |
| RKRIRTYLKSCRRMKKNGMEMTRP [NOL4L] | 3.28 ± 0.21 | 3.32 ± 0.22 |

From the supplement of paper PMC10567573
